Test [1] addresses T1, fibrin (human fibrinogen clotted with human thrombin on glass coverslips) (human, UniProt P02671 36-629; P02675 45-491; P02679 27-437, limits assumed).
T1 construct: also called fibrin-coated coverslips
T1 sequence (looked up) 1: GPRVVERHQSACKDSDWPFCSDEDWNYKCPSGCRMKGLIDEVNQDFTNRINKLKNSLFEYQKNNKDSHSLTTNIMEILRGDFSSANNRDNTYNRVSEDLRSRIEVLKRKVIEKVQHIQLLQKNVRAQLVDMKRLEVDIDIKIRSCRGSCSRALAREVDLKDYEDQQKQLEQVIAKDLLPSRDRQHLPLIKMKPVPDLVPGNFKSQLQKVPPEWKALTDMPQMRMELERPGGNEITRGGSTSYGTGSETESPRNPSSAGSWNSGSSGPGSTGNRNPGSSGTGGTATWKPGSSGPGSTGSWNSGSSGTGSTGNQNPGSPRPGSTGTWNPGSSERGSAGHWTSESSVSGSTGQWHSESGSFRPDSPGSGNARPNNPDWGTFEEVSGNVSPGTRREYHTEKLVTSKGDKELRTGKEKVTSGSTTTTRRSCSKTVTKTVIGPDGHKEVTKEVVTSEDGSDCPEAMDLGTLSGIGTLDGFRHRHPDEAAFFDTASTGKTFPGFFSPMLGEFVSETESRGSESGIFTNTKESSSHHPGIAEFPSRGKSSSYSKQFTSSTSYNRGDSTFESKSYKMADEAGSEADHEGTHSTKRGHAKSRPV
T1 sequence (looked up) 2: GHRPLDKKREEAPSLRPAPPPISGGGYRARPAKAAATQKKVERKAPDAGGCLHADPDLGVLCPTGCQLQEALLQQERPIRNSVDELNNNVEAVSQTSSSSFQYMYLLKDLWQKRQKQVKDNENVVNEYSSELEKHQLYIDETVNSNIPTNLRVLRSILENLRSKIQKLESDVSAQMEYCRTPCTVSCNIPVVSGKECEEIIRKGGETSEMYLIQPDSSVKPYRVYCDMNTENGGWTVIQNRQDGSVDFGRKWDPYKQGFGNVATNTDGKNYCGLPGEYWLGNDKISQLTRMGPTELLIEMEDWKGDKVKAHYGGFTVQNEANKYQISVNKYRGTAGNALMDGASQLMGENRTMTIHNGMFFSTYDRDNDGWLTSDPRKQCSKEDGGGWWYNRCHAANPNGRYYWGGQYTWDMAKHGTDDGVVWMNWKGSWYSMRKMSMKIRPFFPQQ
T1 sequence (looked up) 3: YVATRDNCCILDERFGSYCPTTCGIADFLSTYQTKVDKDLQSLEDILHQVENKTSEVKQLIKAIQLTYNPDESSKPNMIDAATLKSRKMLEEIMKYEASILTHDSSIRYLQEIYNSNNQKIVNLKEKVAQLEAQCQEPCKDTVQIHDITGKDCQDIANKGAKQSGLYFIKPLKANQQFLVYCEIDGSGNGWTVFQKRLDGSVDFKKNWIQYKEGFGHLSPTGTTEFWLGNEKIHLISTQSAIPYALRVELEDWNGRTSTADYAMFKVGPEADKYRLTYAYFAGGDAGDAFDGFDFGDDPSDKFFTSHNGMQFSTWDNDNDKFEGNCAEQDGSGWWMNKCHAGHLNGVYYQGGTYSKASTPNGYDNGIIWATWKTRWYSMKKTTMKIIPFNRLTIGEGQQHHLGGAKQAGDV
In words: flow chamber test of targeted microvesicles on fibrin-coated coverslips. As for the experimental part:
Five mL of a solution of BSA 1% w/v in PBS pH 7.4 were added into a 60 mm Petri Dish containing one coverslip, and incubated at 37° C. for 15 min. Then the coverslip was washed three times with 5 ml of Tween 80/PBS (0.1%, v:v). Twenty five μL of human thrombin solution at 5 U/mL were added per mL of human fibrinogen solution (0.5 mg/mL in 50 mM sodium phosphate, NaCl 280 mM, pH 7.4) and delicately mixed. Five mL of this solution were immediately distributed in each Petri dish. The coverslips were incubated for one hour at 37° C. and then dried overnight at 45° C.
Binding studies of targeted microvesicles were carried out using a parallel-plate flow chamber (FCS2, Bioptech Inc., Butler, Pa., USA) with a chamber gasket of 0.25 mm in thickness, with a customized adapter for upside-down chamber inversion. The coated coverslip was inserted as a plate of the flow chamber. Gas-filled Microvesicles (5×10⁶ bubbles/mL in 50% human plasma in PBS) were drawn through the flow chamber using an adjustable infusion pump (Auto Syringe® AS50 Infusion Pump, Baxter, Deerfield, Ill., USA) with a 60 mL syringe (Terumo). The pump flow rate was adjusted to 1 mL/min to obtain the desired shear rate of about 114 s⁻¹. After 10 minutes, the flow was stopped and pictures were taken randomly on different positions on the coverslip (on surfaces of about 0.025 mm²) using a 40× objective and a CCD monochrome camera (F-View II, Soft Imaging Systems, Germany) connected to an inverted Olympus IX 50 microscope. The number of microvesicles on each picture was determined, averaged with respect to the total number of pictures and the obtained value was then divided by ten (to obtain the “slope”, i.e. the average amount of bound microvesicles per minute).

Another test has as its target T2, DDE.
T2 chain 1: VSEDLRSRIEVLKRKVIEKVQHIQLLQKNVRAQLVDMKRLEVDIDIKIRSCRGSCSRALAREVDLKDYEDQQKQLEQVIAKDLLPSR
T2 chain 2: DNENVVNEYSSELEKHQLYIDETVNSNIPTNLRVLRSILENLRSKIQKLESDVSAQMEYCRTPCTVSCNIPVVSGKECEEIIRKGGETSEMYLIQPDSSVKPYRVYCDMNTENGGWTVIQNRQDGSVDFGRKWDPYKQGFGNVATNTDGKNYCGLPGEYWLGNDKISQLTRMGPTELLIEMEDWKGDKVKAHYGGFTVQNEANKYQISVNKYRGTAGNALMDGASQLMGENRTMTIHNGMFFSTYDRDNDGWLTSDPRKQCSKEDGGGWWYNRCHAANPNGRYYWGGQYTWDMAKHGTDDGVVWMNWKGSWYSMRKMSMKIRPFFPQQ
T2 chain 3: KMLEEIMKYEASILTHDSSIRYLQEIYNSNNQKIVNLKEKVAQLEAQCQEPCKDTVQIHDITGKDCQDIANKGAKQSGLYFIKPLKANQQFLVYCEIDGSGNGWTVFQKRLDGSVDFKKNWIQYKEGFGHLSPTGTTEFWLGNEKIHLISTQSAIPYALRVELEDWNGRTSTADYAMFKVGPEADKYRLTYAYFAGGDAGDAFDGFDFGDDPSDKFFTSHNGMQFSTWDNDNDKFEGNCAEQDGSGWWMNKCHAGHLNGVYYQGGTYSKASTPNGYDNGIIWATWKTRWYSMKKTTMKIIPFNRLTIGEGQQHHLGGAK
T2 chain 4: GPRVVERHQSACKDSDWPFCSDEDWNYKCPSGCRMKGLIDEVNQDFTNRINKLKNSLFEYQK
T2 chain 5: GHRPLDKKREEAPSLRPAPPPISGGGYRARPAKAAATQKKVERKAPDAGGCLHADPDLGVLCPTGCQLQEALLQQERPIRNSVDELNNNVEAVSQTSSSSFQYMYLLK
T2 chain 6: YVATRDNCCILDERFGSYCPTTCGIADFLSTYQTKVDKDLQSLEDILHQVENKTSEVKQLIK
In words: competition fluorescence polarization on DDE; this is the reference peptide, 1 by definition.

These results are taken from US20120328512A1 (BRACCO IMAGING S P A, published 2012).

Bridge positions count the residues as written; N and C are the ends. Square brackets hold non-standard residues; d marks the D form. AEEA = NCCOCCOCC(=O)O

B1: Seq005-PL1 (peptide)
peptide: Ac-WQPCPAESWTFCWDPGGGK-NH2
modifications: disulfide 4-12; not fully specified (residue 19); printed as Ac-WQPC*PAESWTFC*WDPGGGK(DSPE-PG4-Glut)-NH2
Consider B1, for which the binding result in test [1] is “binds”.

B2: Seq017-PL1 (peptide)
peptide: Ac-SGSG[AEEA]WQPCPWESWTFCWDPGGGK-NH2
modifications: disulfide 9-17; not fully specified (residue 24); printed as Ac-SGSGJWQPC*PWESWTFC*WDPGGGK(DSPE-PG4-Glut)-NH2
In the case of B2, the binding result in test [1] is on record as “binds”.

B3: Seq005-PL4 (peptide)
peptide: Ac-WQPCPAESWTFCWDPGSAGSK-NH2
modifications: disulfide 4-12; not fully specified (residue 21)
notes: Linker GSAGSK
In the case of B3, in test [1], the binding result is recorded as “binds”.

B4: Seq024-PL1 (peptide)
peptide: Ac-SGSGSGSGWQPCPWESWTFCWDPGGGK-NH2
modifications: disulfide 12-20; not fully specified (residue 27); printed as Ac-SGSGSGSGWQPC*PWESWTFC*WDPGGGK(DSPE-PG4-Glut)-NH2
Regarding B4, the binding result in test [1] is reported as “binds”.

B5: Seq005-PL5 (peptide)
peptide: Ac-WQPCPAESWTFCWDPGAGSGK-NH2
modifications: disulfide 4-12; not fully specified (residue 21)
notes: Linker GAGSGK
In the case of B5, the binding result in test [1] is on record as “binds”.

B6: Seq023-PL1 (peptide)
peptide: H-RWQPCPWESWTFCWDPGGGK-NH2
modifications: disulfide 5-13; not fully specified (residue 20); printed as RWQPC*PWESWTFC*WDPGGGK(DSPE-PG4-Glut)-NH2
Take B6: the binding result in test [1] is recorded as “binds”.

B7: Seq016-PL1 (peptide)
peptide: Ac-GWQPCPWESWTFCWDPGGGK-NH2
modifications: disulfide 5-13; not fully specified (residue 20); printed as Ac-GWQPC*PWESWTFC*WDPGGGK(DSPE-PG4-Glut)-NH2
Take B7: in test [1], the binding result is listed as “binds”.

B8: Seq000 (peptide)
peptide: WQPCPWESWTFCWDPGGGK
modifications: N-terminal acetyl (Ac-); C-terminal amide (-NH2); disulfide between the two C* cysteines
notes: also called comparative peptide
As to B8, the “Rel IC50” value in the test with DDE is 1 ratio to the reference peptide.
